Measurements: the supplement of paper PMC10065799, “High-throughput profiling of sequence recognition by tyrosine kinases and SH2 domains using bacterial peptide display” (eLife, 2023)

Legend:
AncSZ = experiment: phosphorylation enrichment, bacterial display (enrichment ratio); higher = better substrate or ligand; peptides without Tyr show the background
EPHB1 = EPHB1 (UniProt P54762); experiment: as above
EPHB2 = EPHB2 (UniProt P29323); experiment: as above
FGFR1 = FGFR1 (UniProt P11362); experiment: as above
FGFR3 = FGFR3 (UniProt P22607); experiment: as above
Fer (mouse) = experiment: as above
Fes = Fes (UniProt P07332); experiment: as above
Fyn = Fyn (UniProt P06241); experiment: as above
Hck = Hck (UniProt P08631); experiment: as above
Jak2 = Jak2 (UniProt O60674); experiment: as above
MERTK = MERTK (UniProt Q12866); experiment: as above
c-Abl (mouse) = experiment: as above
c-Src = experiment: as above
Grb2 SH2 = Grb2 SH2 (UniProt P62993); experiment: SH2 binding enrichment of the phosphorylated peptide, bacterial display (enrichment ratio); higher = better substrate or ligand; peptides without Tyr show the background
SHP2-C SH2 = experiment: as above
c-Src SH2 = experiment: as above
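For SH2 binding enrichment of the phosphorylated peptide, bacterial display in this document: peptide library displayed on the E. coli surface as eCPX fusions, selected cells deep-sequenced, score is each peptide's frequency after selection divided by its frequency in the input.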
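For phosphorylation enrichment, bacterial display in this document: 11-residue human phosphosite peptides and single-mutation variants displayed on the E. coli surface, counted by deep sequencing, each peptide's frequency after selection divided by its frequency in the unselected input library; frequency after pTyr selection over input frequency; kinase dosed for 20-30% of maximal phosphorylation in three min.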

Sequence of Fyn (P06241 whole entry, looked up): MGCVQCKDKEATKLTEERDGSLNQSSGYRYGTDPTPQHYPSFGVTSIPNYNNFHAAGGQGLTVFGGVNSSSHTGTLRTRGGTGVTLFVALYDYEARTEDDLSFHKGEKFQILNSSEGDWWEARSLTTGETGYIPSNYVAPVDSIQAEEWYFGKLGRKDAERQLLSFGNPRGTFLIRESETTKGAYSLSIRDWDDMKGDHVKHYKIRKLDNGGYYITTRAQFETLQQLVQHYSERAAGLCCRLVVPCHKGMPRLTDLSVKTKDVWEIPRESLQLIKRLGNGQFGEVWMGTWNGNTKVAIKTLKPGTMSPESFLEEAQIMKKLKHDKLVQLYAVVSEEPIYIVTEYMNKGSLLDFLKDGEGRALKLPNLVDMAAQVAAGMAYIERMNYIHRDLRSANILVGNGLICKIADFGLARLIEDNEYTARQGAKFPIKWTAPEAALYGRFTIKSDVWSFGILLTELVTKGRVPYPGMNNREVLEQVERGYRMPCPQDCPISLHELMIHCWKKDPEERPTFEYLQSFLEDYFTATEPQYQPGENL
Sequence of FGFR1 (P11362 whole entry, looked up): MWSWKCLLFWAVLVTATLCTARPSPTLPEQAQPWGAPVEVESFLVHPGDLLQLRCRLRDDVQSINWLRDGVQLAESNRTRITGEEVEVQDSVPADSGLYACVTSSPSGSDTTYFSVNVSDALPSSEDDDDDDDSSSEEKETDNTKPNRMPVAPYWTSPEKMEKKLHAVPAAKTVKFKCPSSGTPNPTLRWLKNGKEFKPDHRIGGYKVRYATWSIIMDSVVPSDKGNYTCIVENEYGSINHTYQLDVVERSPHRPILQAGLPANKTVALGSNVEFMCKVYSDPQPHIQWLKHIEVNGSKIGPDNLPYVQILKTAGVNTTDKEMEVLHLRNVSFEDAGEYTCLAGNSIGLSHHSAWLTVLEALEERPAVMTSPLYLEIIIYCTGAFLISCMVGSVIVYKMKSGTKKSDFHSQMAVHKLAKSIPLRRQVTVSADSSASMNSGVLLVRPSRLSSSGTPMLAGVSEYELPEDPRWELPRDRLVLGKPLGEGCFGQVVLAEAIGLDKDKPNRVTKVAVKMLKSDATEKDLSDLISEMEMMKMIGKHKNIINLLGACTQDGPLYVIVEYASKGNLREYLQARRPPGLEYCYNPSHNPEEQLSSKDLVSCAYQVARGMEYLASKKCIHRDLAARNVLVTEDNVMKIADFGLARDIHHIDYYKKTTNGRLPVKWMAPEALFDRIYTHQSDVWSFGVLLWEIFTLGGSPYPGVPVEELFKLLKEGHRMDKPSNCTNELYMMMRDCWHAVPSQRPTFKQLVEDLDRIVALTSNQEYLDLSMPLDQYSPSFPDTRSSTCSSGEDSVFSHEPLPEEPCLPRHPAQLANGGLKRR
Sequence of Fes (P07332 whole entry, looked up): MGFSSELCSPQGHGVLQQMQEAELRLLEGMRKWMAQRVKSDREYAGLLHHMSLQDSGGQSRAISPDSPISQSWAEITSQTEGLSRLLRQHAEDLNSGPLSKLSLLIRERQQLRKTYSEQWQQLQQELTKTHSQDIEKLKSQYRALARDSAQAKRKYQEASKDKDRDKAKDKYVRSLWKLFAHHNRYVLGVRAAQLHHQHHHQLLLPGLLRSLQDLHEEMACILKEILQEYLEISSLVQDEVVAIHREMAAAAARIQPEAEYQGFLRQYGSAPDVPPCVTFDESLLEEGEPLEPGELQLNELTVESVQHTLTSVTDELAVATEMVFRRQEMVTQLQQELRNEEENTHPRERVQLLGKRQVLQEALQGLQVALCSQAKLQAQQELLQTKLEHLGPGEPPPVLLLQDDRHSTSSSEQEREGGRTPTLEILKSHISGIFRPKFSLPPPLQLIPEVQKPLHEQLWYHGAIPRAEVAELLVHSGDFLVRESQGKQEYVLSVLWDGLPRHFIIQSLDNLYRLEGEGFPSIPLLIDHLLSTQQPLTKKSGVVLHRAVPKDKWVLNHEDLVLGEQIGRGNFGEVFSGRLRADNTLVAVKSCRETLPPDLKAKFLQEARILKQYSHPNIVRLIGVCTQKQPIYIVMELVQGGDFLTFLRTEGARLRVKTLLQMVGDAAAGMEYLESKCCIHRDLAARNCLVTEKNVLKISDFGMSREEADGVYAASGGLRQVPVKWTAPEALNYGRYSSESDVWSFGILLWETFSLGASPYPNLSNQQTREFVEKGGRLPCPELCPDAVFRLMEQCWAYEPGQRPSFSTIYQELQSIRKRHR
Sequence of EPHB2 (P29323 whole entry, looked up): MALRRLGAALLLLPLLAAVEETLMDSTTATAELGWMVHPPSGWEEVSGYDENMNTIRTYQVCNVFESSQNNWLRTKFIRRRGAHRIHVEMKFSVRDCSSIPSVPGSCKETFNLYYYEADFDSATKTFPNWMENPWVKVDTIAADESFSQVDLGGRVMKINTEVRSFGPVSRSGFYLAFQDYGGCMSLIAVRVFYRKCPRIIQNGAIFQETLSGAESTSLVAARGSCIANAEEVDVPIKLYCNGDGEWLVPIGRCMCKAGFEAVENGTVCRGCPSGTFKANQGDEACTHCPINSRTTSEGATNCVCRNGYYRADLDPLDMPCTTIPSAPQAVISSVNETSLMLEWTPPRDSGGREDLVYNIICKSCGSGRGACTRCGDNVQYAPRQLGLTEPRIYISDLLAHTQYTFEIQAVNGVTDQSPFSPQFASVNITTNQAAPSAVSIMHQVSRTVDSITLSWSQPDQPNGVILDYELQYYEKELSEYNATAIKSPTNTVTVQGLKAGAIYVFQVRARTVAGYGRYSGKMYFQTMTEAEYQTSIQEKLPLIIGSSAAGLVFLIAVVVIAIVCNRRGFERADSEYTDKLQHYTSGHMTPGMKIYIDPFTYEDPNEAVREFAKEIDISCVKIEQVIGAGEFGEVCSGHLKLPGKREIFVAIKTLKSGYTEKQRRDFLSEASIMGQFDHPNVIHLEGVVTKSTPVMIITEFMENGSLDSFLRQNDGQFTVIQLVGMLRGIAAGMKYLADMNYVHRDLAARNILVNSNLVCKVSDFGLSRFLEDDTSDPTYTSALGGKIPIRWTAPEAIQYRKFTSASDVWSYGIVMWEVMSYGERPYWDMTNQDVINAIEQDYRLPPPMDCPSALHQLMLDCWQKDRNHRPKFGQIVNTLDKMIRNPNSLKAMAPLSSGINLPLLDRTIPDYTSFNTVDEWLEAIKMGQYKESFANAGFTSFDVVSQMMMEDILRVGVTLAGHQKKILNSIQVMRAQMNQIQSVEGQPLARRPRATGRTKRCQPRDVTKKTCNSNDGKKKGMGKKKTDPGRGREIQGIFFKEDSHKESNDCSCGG
Sequence of MERTK (Q12866 whole entry, looked up): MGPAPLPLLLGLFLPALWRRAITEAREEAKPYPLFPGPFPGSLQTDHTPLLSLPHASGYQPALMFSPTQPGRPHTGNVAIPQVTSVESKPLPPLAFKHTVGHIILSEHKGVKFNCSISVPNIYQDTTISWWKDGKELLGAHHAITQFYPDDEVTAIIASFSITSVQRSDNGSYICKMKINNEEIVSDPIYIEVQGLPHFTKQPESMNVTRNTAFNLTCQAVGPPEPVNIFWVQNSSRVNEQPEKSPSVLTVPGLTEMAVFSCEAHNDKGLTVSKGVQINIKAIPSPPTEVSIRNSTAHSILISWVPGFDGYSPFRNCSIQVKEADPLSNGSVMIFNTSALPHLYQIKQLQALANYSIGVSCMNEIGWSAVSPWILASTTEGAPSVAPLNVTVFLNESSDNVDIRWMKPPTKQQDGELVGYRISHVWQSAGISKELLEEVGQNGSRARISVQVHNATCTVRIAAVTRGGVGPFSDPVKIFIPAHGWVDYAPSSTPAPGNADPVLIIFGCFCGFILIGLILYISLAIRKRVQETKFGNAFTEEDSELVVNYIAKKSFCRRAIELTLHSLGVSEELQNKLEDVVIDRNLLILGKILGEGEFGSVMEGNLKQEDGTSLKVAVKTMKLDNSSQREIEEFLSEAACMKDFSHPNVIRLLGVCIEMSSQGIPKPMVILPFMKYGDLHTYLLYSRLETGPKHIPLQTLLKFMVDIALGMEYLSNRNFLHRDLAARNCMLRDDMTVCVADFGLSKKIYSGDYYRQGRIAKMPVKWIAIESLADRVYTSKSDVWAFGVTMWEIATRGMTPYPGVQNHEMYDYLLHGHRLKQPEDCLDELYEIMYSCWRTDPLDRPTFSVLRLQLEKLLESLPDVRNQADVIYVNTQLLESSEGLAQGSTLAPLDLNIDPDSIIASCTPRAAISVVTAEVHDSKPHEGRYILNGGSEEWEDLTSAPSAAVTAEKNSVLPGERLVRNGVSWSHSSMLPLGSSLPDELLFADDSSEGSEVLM
Sequence of FGFR3 (P22607 whole entry, looked up): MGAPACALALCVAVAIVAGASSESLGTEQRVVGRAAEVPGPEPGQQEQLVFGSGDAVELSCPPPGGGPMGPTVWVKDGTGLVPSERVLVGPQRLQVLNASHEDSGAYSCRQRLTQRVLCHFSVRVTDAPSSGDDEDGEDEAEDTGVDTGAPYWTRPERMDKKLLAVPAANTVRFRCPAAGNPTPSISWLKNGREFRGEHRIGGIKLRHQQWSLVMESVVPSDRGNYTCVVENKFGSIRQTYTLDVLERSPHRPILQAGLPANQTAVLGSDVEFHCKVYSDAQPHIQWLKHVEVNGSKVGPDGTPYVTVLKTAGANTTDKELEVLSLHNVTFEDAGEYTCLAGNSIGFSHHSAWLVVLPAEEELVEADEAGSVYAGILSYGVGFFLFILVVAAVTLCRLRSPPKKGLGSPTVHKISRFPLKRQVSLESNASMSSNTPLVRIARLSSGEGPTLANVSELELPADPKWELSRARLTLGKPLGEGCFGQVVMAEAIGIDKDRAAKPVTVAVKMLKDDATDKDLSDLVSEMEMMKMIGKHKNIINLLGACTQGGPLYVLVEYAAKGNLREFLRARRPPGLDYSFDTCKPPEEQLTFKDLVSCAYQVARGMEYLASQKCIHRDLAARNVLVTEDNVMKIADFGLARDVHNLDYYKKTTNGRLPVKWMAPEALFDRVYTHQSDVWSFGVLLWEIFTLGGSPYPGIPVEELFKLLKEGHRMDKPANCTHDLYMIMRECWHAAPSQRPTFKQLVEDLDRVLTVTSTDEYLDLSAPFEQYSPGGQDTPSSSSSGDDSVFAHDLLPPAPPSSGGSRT

Sequence	phosphorylation enrichment (AncSZ)	phosphorylation enrichment (EPHB1)	phosphorylation enrichment (EPHB2)	phosphorylation enrichment (FGFR1)	phosphorylation enrichment (FGFR3)	phosphorylation enrichment (Fer (mouse))	phosphorylation enrichment (Fes)	phosphorylation enrichment (Fyn)	phosphorylation enrichment (Hck)	phosphorylation enrichment (Jak2)	phosphorylation enrichment (MERTK)	phosphorylation enrichment (c-Abl (mouse))	phosphorylation enrichment (c-Src)	SH2 binding enrichment (Grb2 SH2)	SH2 binding enrichment (SHP2-C SH2)	SH2 binding enrichment (c-Src SH2)
WASGIYYVPKG [APBB1IP_Y340_R335W]	3.2	15.3	17	8.05	7.15	5.91	1.05	10	10.1	8.67	11.5	31.1	6.92	1.21	0.959	0.883
WCSNDYLGMSR [ALAS2_Y199]	1.85	0.959	0.752	1.57	1.25	0.5	0.845	0.551	0.781	3.41	0.398	0.6	0.843	0.895	0.773	0.642
WFKKFYDANCD [MAPRE2_Y158_Y162C]	1	0.77	0.426	0.472	0.707	0.453	1.21	0.46	0.475	0.948	0.35	0.749	0.397	0.848	0.78	0.513
WFPFTYVEEDE [VAV3_Y842_S840Y_YF]	1.19	0.702	0.473	0.52	0.692	0.547	1.11	0.516	0.437	1.1	0.453	0.655	0.521	1.48	1.48	1.23
WFPYTYVEEDE [VAV3_Y842_S840Y]	1.47	1.16	0.773	1.56	1.72	0.899	1.3	0.843	0.616	1.08	0.625	0.746	1.3	0.879	1.91	3.92
WGLCSYFETSK [MAGED2_Y448_R446C_YF]	1.29	0.671	0.633	0.768	0.847	0.62	1.55	0.423	0.523	1.34	0.403	0.926	0.698	1.11	0.797	0.698
WKGSWYSMKKM [FGB_Y475_R478K]	0.736	0.645	0.506	0.488	0.553	0.353	0.918	0.488	0.437	0.859	0.362	0.533	0.373	1.3	1.37	1.19
WQQQSYLDSRI [CTNNB1_Y30_G34R]	0.675	0.444	0.473	0.484	0.496	0.455	0.793	0.465	0.476	0.623	0.515	0.482	0.4	0.894	0.645	0.571
WYQTKYEELQI [KRT6B_Y360]	1.11	0.454	0.639	0.503	0.727	0.614	1.23	0.474	0.649	1.15	0.437	0.741	0.552	0.798	1.2	5.9
YCGYSYDDIPD [TMEM230_Y112_R108C]	2.47	0.818	0.954	1.53	1.57	1.95	1.34	0.932	0.799	1.36	1.03	0.926	1.75	0.988	1.43	10.6
YEAMEYLESKQ [BTK_Y511_C506Y]	1.84	2.15	0.843	1.15	1.04	3.06	1.28	0.654	0.805	1.14	3.12	0.836	0.568	0.646	0.649	10
YEEDPYLVVNP [MCM6_Y810]	1.79	0.648	0.56	1.52	1.52	0.825	1.37	1.99	1.06	1.37	0.605	0.861	2.48	1.2	0.855	3.48
YEHVGYTTLNR [CHN1_Y148]	0.72	0.616	0.758	0.725	0.597	4.18	0.658	0.657	2.79	0.725	4.18	1.01	0.655	0.904	19.4	16.5
YEPDAYYDLDQ [ELP5_Y302_D303Y]	1.82	1.05	0.833	8.16	6.94	0.919	1.56	1.62	0.852	1.61	0.65	0.861	2.06	0.807	0.626	1.88
YFRDGCMPRQY [GSS_Y270_Y270C]	0.938	0.602	0.552	0.6	0.883	0.505	0.948	0.43	0.438	0.833	0.406	0.72	0.364	1.08	0.637	0.499
YGLQAYTEVKT [ALDH2_Y502]	1.27	0.721	0.67	0.59	0.842	0.704	1.29	0.546	0.488	1.06	0.55	0.834	0.439	0.984	2.38	6.95

Sequence	phosphorylation enrichment (AncSZ)	phosphorylation enrichment (EPHB1)	phosphorylation enrichment (EPHB2)	phosphorylation enrichment (FGFR1)	phosphorylation enrichment (FGFR3)	phosphorylation enrichment (Fer (mouse))	phosphorylation enrichment (Fes)	phosphorylation enrichment (Fyn)	phosphorylation enrichment (Hck)	phosphorylation enrichment (Jak2)	phosphorylation enrichment (MERTK)	phosphorylation enrichment (c-Abl (mouse))	phosphorylation enrichment (c-Src)	SH2 binding enrichment (Grb2 SH2)	SH2 binding enrichment (SHP2-C SH2)	SH2 binding enrichment (c-Src SH2)
YHLGKYLQEVL [KLB_Y910_Y906H]	1.18	0.481	0.724	0.527	0.739	0.452	1.1	0.524	0.498	0.87	0.383	0.685	0.298	0.878	0.565	0.435
YHLLPYTIRAM [PARS2_Y93_V95I]	1.14	1.17	0.873	16.6	13.8	0.464	0.83	3.83	9.37	7.24	10.9	25.4	5.16	0.994	1.14	6.08
YIGVTYKNEED [PDGFRA_Y993]	1	0.602	0.539	0.71	0.822	0.555	1.05	0.528	0.509	0.961	0.433	0.666	0.461	1.35	1.52	1.89
YKTPTYPYLLP [PLD2_Y578]	0.958	0.459	0.454	0.794	0.786	0.543	0.764	0.525	0.481	0.92	0.589	0.943	0.625	1.04	0.521	1.68
YLAATYPTLGQ [NF1_Y2508_V2511L]	0.779	0.331	0.663	0.824	0.642	0.677	0.773	0.433	0.633	0.754	0.742	0.774	0.637	0.872	0.859	0.764
YLAATYPTVGQ [NF1_Y2508]	0.677	0.357	0.472	0.582	0.51	0.357	0.753	0.455	0.454	1.08	0.73	0.518	0.407	0.796	0.97	0.515
YLGRNYLETLM [DUS3L_Y610_D609N]	0.859	0.578	0.467	0.85	0.744	0.487	0.926	0.435	0.551	0.705	0.467	0.765	0.411	1.01	1.1	0.41
YPKARYHWLVL [APTX_Y214]	0.95	0.507	0.552	0.582	0.67	0.539	1.08	0.429	0.493	0.941	0.482	0.707	0.383	1.54	1.46	1.2
YPLAEYTEVKT [ALDH1A3_Y497_A493P]	1.1	0.563	0.642	1.1	0.824	0.516	0.946	0.433	0.538	0.721	0.326	0.607	0.444	1.22	0.869	1.78
YPRTGYSVPYG [TGM1_Y370_L366P]	0.714	0.418	0.519	0.525	0.545	0.383	0.78	0.459	0.453	0.925	0.55	0.681	0.406	1.01	0.854	5.88
YQQLFYLLQTN [IQGAP2_Y890]	1.36	1.92	0.758	2.75	2.26	0.692	1.35	0.751	1.17	1.39	2.7	1.03	1.3	1.49	1.83	1.11
YRDMDYRSYPR [RBM10_Y41]	0.64	0.477	0.475	2.3	1.37	0.415	0.895	0.402	0.4	0.55	0.519	0.607	0.547	0.87	0.707	0.941
YSGLAYTMERS [GLUD1_Y512_H507Y]	0.765	0.386	0.355	0.463	0.558	0.398	0.833	1.09	1.64	0.873	0.849	0.607	1.43	0.682	1.48	1.59
YSMGCYEISLE [HMGCL_Y198_G203E]	2.01	1.01	0.907	0.582	1.09	1.82	1.35	1.65	1.23	1.08	1.51	0.806	2.02	0.766	0.564	0.504
YVSLIYTNYEA [GSTP1_Y109_I105V]	1.84	3.04	2.87	6.43	5.46	3.36	1.36	5.04	3.62	1.32	4.74	1.87	4.34	1.18	4.37	3.42
YYYDLYGGEKF [PTPN11_Y66_D61Y]	1.98	7.99	11.5	14.7	13.6	4.15	1.3	5.97	6.45	5.36	9.48	0.964	5.71	1.43	1.63	4.39
